Laboratory results reported in publication PMC10215022 (mAbs, 2023).

B1: casirivimab (REGN10933) (antibody, V domains shown)
VH: QVQLVESGGGLVKPGGSLRLSCAASGFTFSDYYMSWIRQAPGKGLEWVSYITYSGSTIYYADSVKGRFTISRDNAKSSLYLQMNSLRAEDTAVYYCARDRGTTMVPFDYWGQGTLVTVSS
VL: DIQMTQSPSSLSASVGDRVTITCQASQDITNYLNWYQQKPGKAPKLLIYAASNLETGVPSRFSGSGSGTDFTFTISGLQPEDIATYYCQQYDNLPLTFGGGTKVEIK
B2: imdevimab (REGN10987) (antibody, V domains shown)
VH: QVQLVESGGGVVQPGRSLRLSCAASGFTFSNYAMYWVRQAPGKGLEWVAVISYDGSNKYYADSVKGRFTISRDNSKNTLYLQMNSLRTEDTAVYYCASGSDYGDYLLVYWGQGTLVTVSS
VL: QSALTQPASVSGSPGQSITISCTGTSSDVGGYNYVSWYQQHPGKAPKLMIYDVSKRPSGVSNRFSGSKSGNTASLTISGLQSEDEADYYCNSLTSISTWVFGGGTKLTVL

Target: SARS-CoV-2 Wuhan (WT) spike protein RBD, His-tagged (SARS-CoV-2 Wuhan (WT), UniProt P0DTC2)
Test: SPR

Binder | Kd | koff | kon
B1 | 0.071 nM | 0.00021 s⁻¹ | 3e+06 M⁻¹ s⁻¹
B2 | 0.087 nM | 0.00029 s⁻¹ | 3.4e+06 M⁻¹ s⁻¹
